From patent publication US8524668 (CLEVELAND CLINIC FOUNDATION, dated 2013) come the findings set out here.

The target of the test is TLR2/TLR6 heterodimer. The experiment in a line: cell-based or functional assay.

Ends that are not written are not given here. Pam2 = S-(2,3-dihydroxypropyl)-cysteine acylated by two palmitic acids (lipo-cysteine)

For the molecule {R‑Pam2}-GDPKHPKSF [CBLB606], the NF-κB activation stood at 100.

As for Pam2-GQHHH [CBLB602], the NF-κB activation was found to be 0.

As for Pam2-FEPPPATTTKSK [CBLB608], the NF-κB activation stood at 2.

For the molecule Pam2-GQHHM [CBLB603], the NF-κB activation was 0.

Molecule QGEESNDK (not fully specified (N-terminus)) [CBLB614] gave an NF-κB activation of 200.

For Pam2-GDPKHPKSFTGWVA [CBLB607], the NF-κB activation was 2.

B1: CBLB601 (R-PAM2C-SKKKK) (peptide)
peptide: CSKKKK
modifications: N-terminal Cys is the R-Pam2 lipoamino acid (S-(2,3-dihydroxypropyl)-cysteine acylated by two palmitic acids, R stereoisomer)
Take B1: the NF-κB activation was 100.

GETDKEGKIIRIFDNSF (not fully specified (N-terminus)) [CBLB611]: the NF-κB activation came to 0.

On to Pam2-SQMHH [CBLB605], for which the NF-κB activation came to 2.

Molecule GEESN (not fully specified (N-terminus)) [CBLB615] had an NF-κB activation of 200.

VQGEESNDK (not fully specified (N-terminus)) [CBLB612] returned an NF-κB activation of 200.

Pam2-GSHHM [CBLB604] gave an NF-κB activation of 0.
